# Measurements from patent US20240117018A1.
# Legend:
# Test in all cases: cell-based or functional assay
# [1] = target: HIV-1 Env of pseudovirus 1012_11_TC21_3257 (HIV-1)
# [2] = target: HIV-1 Env of pseudovirus ZM249M.PL1 (HIV-1)
# [3] = target: HIV-1 Env of pseudovirus 1056_10_TA11_1826 (HIV-1)
# [4] = target: HIV-1 Env of pseudovirus 6041.v3.c23 (HIV-1)
# [5] = target: HIV-1 Env of pseudovirus Q259.d2.17 (HIV-1)
# [6] = target: HIV-1 Env of pseudovirus Ce1086_B2 (HIV-1)
# [7] = target: HIV-1 Env of pseudovirus RHPA4259.7 (HIV-1)
# [8] = target: HIV-1 Env of pseudovirus ZM214M.PL15 (HIV-1)
# [9] = target: HIV-1 Env of pseudovirus 249M B10 (HIV-1)
# [10] = target: HIV-1 Env of pseudovirus CNE20 (HIV-1)
# [11] = target: HIV-1 Env of pseudovirus 3103.v3.c10 (HIV-1)
# [12] = target: HIV-1 Env of pseudovirus Q461.e2 (HIV-1)
# [13] = target: HIV-1 Env of pseudovirus CNE19 (HIV-1)
# [14] = target: HIV-1 Env of pseudovirus CNE17 (HIV-1)
# [15] = target: HIV-1 Env of pseudovirus CNE58 (HIV-1)
# [16] = target: HIV-1 Env of pseudovirus REJO4541.67 (HIV-1)
# [17] = target: HIV-1 Env of pseudovirus Du156.12 (HIV-1)
# [18] = target: HIV-1 Env of pseudovirus 231965.c01 (HIV-1)
# [19] = target: HIV-1 Env of pseudovirus 7030102001E5(Rev-) (HIV-1)
# [20] = target: HIV-1 Env of pseudovirus Du172.17 (HIV-1)
# [21] = target: HIV-1 Env of pseudovirus Du422.1 (HIV-1)
# [22] = target: HIV-1 Env of pseudovirus CNE21 (HIV-1)
# [23] = target: HIV-1 Env of pseudovirus BJOX009000.02.4 (HIV-1)
# [24] = target: HIV-1 Env of pseudovirus SC422661.8 (HIV-1)
# [25] = target: HIV-1 Env of pseudovirus X2088_c9 (HIV-1)
# [26] = target: HIV-1 Env of pseudovirus ZM197M.PB7 (HIV-1)
# [27] = target: HIV-1 Env of pseudovirus 1006_11_C3_1601 (HIV-1)
# [28] = target: HIV-1 Env of pseudovirus HIV-0013095-2.11 (HIV-1)
# [29] = target: HIV-1 Env of pseudovirus T257-31 (HIV-1)
# [30] = target: HIV-1 Env of pseudovirus BF1266.431a (HIV-1)
# [31] = target: HIV-1 Env of pseudovirus Ce2060_G9 (HIV-1)
# [32] = target: HIV-1 Env of pseudovirus C3347.c11 (HIV-1)
# [33] = target: HIV-1 Env of pseudovirus 6952.v1.c20 (HIV-1)
# [34] = target: HIV-1 Env of pseudovirus T278-50 (HIV-1)
substance,measurement,setting,value
PGT145 (antibody),neutralization IC50,[1],0.009 µg/mL
same,neutralization IC80,[1],0.025 µg/mL
same,neutralization IC50,[2],1.44 µg/mL
same,neutralization IC80,[2],> 50 µg/mL
same,neutralization IC50,[3],0.23 µg/mL
same,neutralization IC80,[3],0.938 µg/mL
same,IC50 (Titer in TZM.bl cells),[4],0.964 µg/mL
same,IC80 (Titer in TZM.bl cells),[4],> 50 µg/mL
same,neutralization IC50,[5],44.2 µg/mL
same,neutralization IC80,[5],> 50 µg/mL
same,neutralization IC50,[6],> 50 µg/mL
same,neutralization IC80,[6],> 50 µg/mL
same,neutralization IC50,[7],0.029 µg/mL
same,neutralization IC80,[7],0.095 µg/mL
same,neutralization IC50,[8],> 50 µg/mL
same,neutralization IC80,[8],> 50 µg/mL
same,neutralization IC50,[9],0.947 µg/mL
same,neutralization IC80,[9],41.3 µg/mL
same,neutralization IC50,[10],0.318 µg/mL
same,neutralization IC80,[10],6.97 µg/mL
same,IC50 (Titer in TZM.bl cells),[11],0.043 µg/mL
same,IC80 (Titer in TZM.bl cells),[11],0.164 µg/mL
same,neutralization IC50,[12],7.8 µg/mL
same,neutralization IC80,[12],> 50 µg/mL
same,neutralization IC50,[13],0.103 µg/mL
same,neutralization IC80,[13],1.13 µg/mL
same,neutralization IC50,[14],0.091 µg/mL
same,neutralization IC80,[14],1.16 µg/mL
same,neutralization IC50,[15],0.183 µg/mL
same,neutralization IC80,[15],7.41 µg/mL
same,neutralization IC50,[16],< 0.001 µg/mL
same,neutralization IC80,[16],0.001 µg/mL
same,neutralization IC50,[17],0.001 µg/mL
same,neutralization IC80,[17],0.018 µg/mL
same,IC50 (Titer in TZM.bl cells),[18],0.403 µg/mL
same,IC80 (Titer in TZM.bl cells),[18],15 µg/mL
same,neutralization IC50,[19],> 50 µg/mL
same,neutralization IC80,[19],> 50 µg/mL
same,neutralization IC50,[20],> 50 µg/mL
same,neutralization IC80,[20],> 50 µg/mL
same,neutralization IC50,[21],22.6 µg/mL
same,neutralization IC80,[21],> 50 µg/mL
same,neutralization IC50,[22],< 0.001 µg/mL
same,neutralization IC80,[22],0.009 µg/mL
same,IC50 (Titer in TZM.bl cells),[23],0.117 µg/mL
same,IC80 (Titer in TZM.bl cells),[23],0.745 µg/mL
same,neutralization IC50,[24],0.024 µg/mL
same,neutralization IC80,[24],0.082 µg/mL
same,IC50 (Titer in TZM.bl cells),[25],> 50 µg/mL
same,IC80 (Titer in TZM.bl cells),[25],> 50 µg/mL
same,neutralization IC50,[26],0.628 µg/mL
same,neutralization IC80,[26],5.24 µg/mL
same,neutralization IC50,[27],> 50 µg/mL
same,neutralization IC80,[27],> 50 µg/mL
same,neutralization IC50,[28],9.27 µg/mL
same,neutralization IC80,[28],> 50 µg/mL
same,neutralization IC50,[29],5.18 µg/mL
same,neutralization IC80,[29],> 50 µg/mL
same,neutralization IC50,[30],1.34 µg/mL
same,neutralization IC80,[30],18.5 µg/mL
same,neutralization IC50,[31],0.016 µg/mL
same,neutralization IC80,[31],0.205 µg/mL
same,IC50 (Titer in TZM.bl cells),[32],0.005 µg/mL
same,IC80 (Titer in TZM.bl cells),[32],0.044 µg/mL
same,IC50 (Titer in TZM.bl cells),[33],3.12 µg/mL
same,IC80 (Titer in TZM.bl cells),[33],> 50 µg/mL
same,IC50 (Titer in TZM.bl cells),[34],10.3 µg/mL
same,IC80 (Titer in TZM.bl cells),[34],> 50 µg/mL
PGT151 (antibody),neutralization IC50,[1],> 50 µg/mL
same,neutralization IC80,[1],> 50 µg/mL
same,neutralization IC50,[2],0.004 µg/mL
same,neutralization IC80,[2],0.015 µg/mL
same,neutralization IC50,[3],0.008 µg/mL
same,neutralization IC80,[3],0.048 µg/mL
same,IC50 (Titer in TZM.bl cells),[4],0.004 µg/mL
same,IC80 (Titer in TZM.bl cells),[4],0.024 µg/mL
same,neutralization IC50,[5],> 50 µg/mL
same,neutralization IC80,[5],> 50 µg/mL
same,neutralization IC50,[6],2.65 µg/mL
same,neutralization IC80,[6],> 50 µg/mL
same,neutralization IC50,[7],0.006 µg/mL
same,neutralization IC80,[7],0.033 µg/mL
same,neutralization IC50,[8],0.008 µg/mL
same,neutralization IC80,[8],0.045 µg/mL
same,neutralization IC50,[9],0.007 µg/mL
same,neutralization IC80,[9],0.023 µg/mL
same,neutralization IC50,[10],> 50 µg/mL
same,neutralization IC80,[10],> 50 µg/mL
same,IC50 (Titer in TZM.bl cells),[11],0.014 µg/mL
same,IC80 (Titer in TZM.bl cells),[11],0.202 µg/mL
same,neutralization IC50,[12],12.6 µg/mL
same,neutralization IC80,[12],> 50 µg/mL
same,neutralization IC50,[13],0.014 µg/mL
same,neutralization IC80,[13],> 50 µg/mL
same,neutralization IC50,[14],0.093 µg/mL
same,neutralization IC80,[14],> 50 µg/mL
same,neutralization IC50,[15],0.004 µg/mL
same,neutralization IC80,[15],0.016 µg/mL
same,neutralization IC50,[16],0.018 µg/mL
same,neutralization IC80,[16],0.119 µg/mL
same,neutralization IC50,[17],0.005 µg/mL
same,neutralization IC80,[17],0.023 µg/mL
same,IC50 (Titer in TZM.bl cells),[18],< 0.001 µg/mL
same,IC80 (Titer in TZM.bl cells),[18],0.012 µg/mL
same,neutralization IC50,[19],0.001 µg/mL
same,neutralization IC80,[19],0.011 µg/mL
same,neutralization IC50,[20],0.003 µg/mL
same,neutralization IC80,[20],0.013 µg/mL
same,neutralization IC50,[21],4.6 µg/mL
same,neutralization IC80,[21],> 50 µg/mL
same,neutralization IC50,[22],0.004 µg/mL
same,neutralization IC80,[22],0.012 µg/mL
same,IC50 (Titer in TZM.bl cells),[23],> 50 µg/mL
same,IC80 (Titer in TZM.bl cells),[23],> 50 µg/mL
same,neutralization IC50,[24],0.005 µg/mL
same,neutralization IC80,[24],0.028 µg/mL
same,IC50 (Titer in TZM.bl cells),[25],> 50 µg/mL
same,IC80 (Titer in TZM.bl cells),[25],> 50 µg/mL
same,neutralization IC50,[26],0.003 µg/mL
same,neutralization IC80,[26],0.033 µg/mL
same,neutralization IC50,[27],2.89 µg/mL
same,neutralization IC80,[27],> 50 µg/mL
same,neutralization IC50,[28],> 50 µg/mL
same,neutralization IC80,[28],> 50 µg/mL
same,neutralization IC50,[29],0.003 µg/mL
same,neutralization IC80,[29],0.01 µg/mL
same,neutralization IC50,[30],> 50 µg/mL
same,neutralization IC80,[30],> 50 µg/mL
same,neutralization IC50,[31],0.135 µg/mL
same,neutralization IC80,[31],> 50 µg/mL
same,IC50 (Titer in TZM.bl cells),[32],> 50 µg/mL
same,IC80 (Titer in TZM.bl cells),[32],> 50 µg/mL
same,IC50 (Titer in TZM.bl cells),[33],49.2 µg/mL
same,IC80 (Titer in TZM.bl cells),[33],> 50 µg/mL
same,IC50 (Titer in TZM.bl cells),[34],0.13 µg/mL
same,IC80 (Titer in TZM.bl cells),[34],> 50 µg/mL
